Measurements from publication PMC2734569, “Functional mapping of the fission yeast DNA polymerase δ B-subunit Cdc1 by site-directed and random pentapeptide insertion mutagenesis” (BMC Molecular Biology, 2009).

Tests used:
Test in all cases: two-hybrid; LexA-Cdc1 bait (pBTM116 or pBTM116BN) with Gal4-Pol3 prey and co-expressed c-myc-tagged Cdc27 (pAA-Cdc27) in S. cerevisiae CTY10-5d; ONPG liquid culture beta-galactosidase assay, mean of triplicates, as percent of wild-type Cdc1
Conditions in all cases: partners not purified
Cdc1-J1 = molecular target: T1, Cdc1-J1 (Schizosaccharomyces pombe, UniProt P87324 1-462, Thr-GlyValProLeuThr-Gly)
T1 construct: Cdc1, S. pombe, with a pentapeptide inserted after residue 141; source: yeast two-hybrid fusion, in S. cerevisiae CTY10-5d
T1 sequence (looked up): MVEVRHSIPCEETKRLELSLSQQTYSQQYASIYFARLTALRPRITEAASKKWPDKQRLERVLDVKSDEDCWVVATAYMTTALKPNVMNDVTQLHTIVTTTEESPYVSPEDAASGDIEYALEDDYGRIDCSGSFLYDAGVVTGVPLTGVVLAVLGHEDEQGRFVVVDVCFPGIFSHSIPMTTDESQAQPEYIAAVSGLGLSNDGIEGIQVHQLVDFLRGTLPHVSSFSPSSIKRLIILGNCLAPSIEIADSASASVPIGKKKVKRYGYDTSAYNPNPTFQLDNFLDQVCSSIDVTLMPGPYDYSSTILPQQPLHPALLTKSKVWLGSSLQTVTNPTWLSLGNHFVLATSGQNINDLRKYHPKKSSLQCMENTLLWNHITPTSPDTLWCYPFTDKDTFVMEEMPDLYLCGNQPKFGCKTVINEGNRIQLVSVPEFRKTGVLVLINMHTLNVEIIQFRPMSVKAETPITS

Cdc1-J8 = molecular target: T2, Cdc1-J8 (Schizosaccharomyces pombe, UniProt P87324 1-462, Lys-GlyValProLeuLys-Pro)
T2 construct: Cdc1, S. pombe, with a pentapeptide inserted after residue 83; also called J19; source: yeast two-hybrid fusion, in S. cerevisiae CTY10-5d
T2 sequence (looked up): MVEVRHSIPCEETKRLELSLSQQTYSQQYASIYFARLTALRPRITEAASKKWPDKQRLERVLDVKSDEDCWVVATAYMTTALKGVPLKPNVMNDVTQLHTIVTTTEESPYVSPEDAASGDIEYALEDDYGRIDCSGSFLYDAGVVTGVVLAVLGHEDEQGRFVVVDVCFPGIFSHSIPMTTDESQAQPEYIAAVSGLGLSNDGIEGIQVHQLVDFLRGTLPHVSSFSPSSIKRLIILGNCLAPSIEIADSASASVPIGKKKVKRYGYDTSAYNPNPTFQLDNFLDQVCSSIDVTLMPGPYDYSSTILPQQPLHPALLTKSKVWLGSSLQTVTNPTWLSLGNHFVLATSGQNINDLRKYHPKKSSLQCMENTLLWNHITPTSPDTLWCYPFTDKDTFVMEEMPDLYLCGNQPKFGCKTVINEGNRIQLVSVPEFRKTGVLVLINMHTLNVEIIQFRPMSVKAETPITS

Cdc1-E2 = molecular target: T3, Cdc1-E2 (Schizosaccharomyces pombe, UniProt P87324 1-26)
T3 construct: Cdc1, S. pombe, truncated after amino acid 26 by a 16 nt insertion; residues coded by the 16 nt insertion before the stop codon (printed as GlyValProLysTer); source: yeast two-hybrid fusion, in S. cerevisiae CTY10-5d
T3 chain: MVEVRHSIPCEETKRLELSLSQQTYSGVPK

Cdc1-A2 = molecular target: T4, Cdc1-A2 (Schizosaccharomyces pombe, UniProt P87324 1-462, Gly293Ala)
T4 construct: Cdc1, S. pombe, point mutant; source: yeast two-hybrid fusion, in S. cerevisiae CTY10-5d
T4 sequence (looked up): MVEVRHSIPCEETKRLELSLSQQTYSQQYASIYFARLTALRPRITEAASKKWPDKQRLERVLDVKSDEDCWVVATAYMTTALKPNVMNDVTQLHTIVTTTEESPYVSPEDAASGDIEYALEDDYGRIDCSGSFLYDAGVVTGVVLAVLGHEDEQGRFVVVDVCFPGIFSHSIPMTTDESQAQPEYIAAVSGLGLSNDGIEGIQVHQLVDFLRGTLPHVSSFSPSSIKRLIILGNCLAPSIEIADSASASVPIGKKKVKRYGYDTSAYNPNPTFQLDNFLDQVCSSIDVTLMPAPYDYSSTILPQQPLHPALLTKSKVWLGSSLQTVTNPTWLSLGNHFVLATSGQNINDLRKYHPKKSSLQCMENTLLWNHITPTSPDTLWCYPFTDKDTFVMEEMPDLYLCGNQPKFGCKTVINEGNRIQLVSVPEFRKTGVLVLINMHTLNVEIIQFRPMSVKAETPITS

- two-hybrid beta-galactosidase activity, % of wild-type Cdc1 (Cdc1-J1): < 1%
- two-hybrid beta-galactosidase activity, % of wild-type Cdc1 (Cdc1-J8): < 1%
- two-hybrid beta-galactosidase activity, % of wild-type Cdc1 (Cdc1-E2): < 1%
- two-hybrid beta-galactosidase activity, % of wild-type Cdc1 (Cdc1-A2): < 1%
B1: Pol3 (fission yeast DNA polymerase delta catalytic subunit) (natural protein, Schizosaccharomyces pombe, UniProt P30316 1-1086, looked up)
chain: MTDRSSNEGVVLNKENYPFPRRNGSIHGEITDVKRRRLSERNGYGDKKGSSSKEKTSSFEDELAEYASQLDQDEIKSSKDQQWQRPALPAINPEKDDIYFQQIDSEEFTEGSVPSIRLFGVTDNGNSILVHVVGFLPYFYVKAPVGFRPEMLERFTQDLDATCNGGVIDHCIIEMKENLYGFQGNEKSPFIKIFTTNPRILSRARNVFERGEFNFEELFPVGVGVTTFESNTQYLLRFMIDCDVVGMNWIHLPASKYQFRYQNRVSNCQIEAWINYKDLISLPAEGQWSKMAPLRIMSFDIECAGRKGVFPDPSIDPVIQIASIVTQYGDSTPFVRNVFCVDTCSQIVGTQVYEFQNQAEMLSSWSKFVRDVDPDVLIGYNICNFDIPYLLDRAKSLRIHNFPLLGRIHNFFSVAKETTFSSKAYGTRESKTTSIPGRLQLDMLQVMQRDFKLRSYSLNAVCSQFLGEQKEDVHYSIITDLQNGTADSRRRLAIYCLKDAYLPQRLMDKLMCFVNYTEMARVTGVPFNFLLARGQQIKVISQLFRKALQHDLVVPNIRVNGTDEQYEGATVIEPIKGYYDTPIATLDFSSLYPSIMQAHNLCYTTLLDSNTAELLKLKQDVDYSVTPNGDYFVKPHVRKGLLPIILADLLNARKKAKADLKKETDPFKKAVLDGRQLALKVSANSVYGFTGATNGRLPCLAISSSVTSYGRQMIEKTKDVVEKRYRIENGYSHDAVVIYGDTDSVMVKFGVKTLPEAMKLGEEAANYVSDQFPNPIKLEFEKVYFPYLLISKKRYAGLFWTRTDTYDKMDSKGIETVRRDNCPLVSYVIDTALRKMLIDQDVEGAQLFTKKVISDLLQNKIDMSQLVITKALSKTDYAAKMAHVELAERMRKRDAGSAPAIGDRVAYVIIKGAQGDQFYMRSEDPIYVLENNIPIDAKYYLENQLSKPLLRIFEPILGEKASSLLHGDHTRTISMAAPSVGGIMKFAVKVETCLGCKAPIKKGKTALCENCLNRSAELYQRQVAQVNDLEVRFARLWTQCQRCQGSMHQDVICTSRDCPIFYMRIAEHKKLQQSVDLLKRFDEMSW
notes: DNA polymerase delta catalytic subunit Pol3, S. pombe; prey plasmid named pACT-Pol3 in the results and pGAD2F-Pol3 in the methods; also called Gal4-Pol3; pACT-Pol3; source: yeast two-hybrid fusion, in S. cerevisiae CTY10-5d
